Experimental data taken from patent US20160215061A1.

Molecular target: recombinant mouse FcγRIIB expressed in NS0 cells (mouse) (UniProt P08101)
Test: SPR (Biacore); capture sample on chip, rmFcgRIIB (NSO) injected; reference Herceptin

Chain of recombinant mouse FcγRIIB expressed in NS0 cells (mouse) (P08101 40-207 limits assumed): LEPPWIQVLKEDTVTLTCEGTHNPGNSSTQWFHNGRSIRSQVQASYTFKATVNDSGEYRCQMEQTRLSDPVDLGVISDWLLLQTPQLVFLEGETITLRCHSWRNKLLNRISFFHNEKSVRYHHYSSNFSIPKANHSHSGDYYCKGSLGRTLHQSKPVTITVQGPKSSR

“F243A/V264A Fc (SEQ ID NO: 7) (from UniProt P0DOX5 218-448)” gave a Fold Increase in RU vs WT IgG1 of 0.5 fold.
